In article PMC4439256 (Experimental cell research, 2015):

How the values were obtained:
human DNA helicase B [1] = molecular target: T1, human DNA helicase B (human, UniProt Q8NG08 1-1087); assay: co-IP
[2] = molecular target: HDHB N-terminus (aa 1-393) (human, UniProt Q8NG08 1-393); assay: pull-down
[3] = molecular target: HDHB helicase domain (aa 394-958) (human, UniProt Q8NG08 394-958); assay: pull-down
human DNA helicase B [4] = molecular target: T1, human DNA helicase B; assay: pull-down

T1 sequence (Q8NG08 whole entry, the tested form may be a part): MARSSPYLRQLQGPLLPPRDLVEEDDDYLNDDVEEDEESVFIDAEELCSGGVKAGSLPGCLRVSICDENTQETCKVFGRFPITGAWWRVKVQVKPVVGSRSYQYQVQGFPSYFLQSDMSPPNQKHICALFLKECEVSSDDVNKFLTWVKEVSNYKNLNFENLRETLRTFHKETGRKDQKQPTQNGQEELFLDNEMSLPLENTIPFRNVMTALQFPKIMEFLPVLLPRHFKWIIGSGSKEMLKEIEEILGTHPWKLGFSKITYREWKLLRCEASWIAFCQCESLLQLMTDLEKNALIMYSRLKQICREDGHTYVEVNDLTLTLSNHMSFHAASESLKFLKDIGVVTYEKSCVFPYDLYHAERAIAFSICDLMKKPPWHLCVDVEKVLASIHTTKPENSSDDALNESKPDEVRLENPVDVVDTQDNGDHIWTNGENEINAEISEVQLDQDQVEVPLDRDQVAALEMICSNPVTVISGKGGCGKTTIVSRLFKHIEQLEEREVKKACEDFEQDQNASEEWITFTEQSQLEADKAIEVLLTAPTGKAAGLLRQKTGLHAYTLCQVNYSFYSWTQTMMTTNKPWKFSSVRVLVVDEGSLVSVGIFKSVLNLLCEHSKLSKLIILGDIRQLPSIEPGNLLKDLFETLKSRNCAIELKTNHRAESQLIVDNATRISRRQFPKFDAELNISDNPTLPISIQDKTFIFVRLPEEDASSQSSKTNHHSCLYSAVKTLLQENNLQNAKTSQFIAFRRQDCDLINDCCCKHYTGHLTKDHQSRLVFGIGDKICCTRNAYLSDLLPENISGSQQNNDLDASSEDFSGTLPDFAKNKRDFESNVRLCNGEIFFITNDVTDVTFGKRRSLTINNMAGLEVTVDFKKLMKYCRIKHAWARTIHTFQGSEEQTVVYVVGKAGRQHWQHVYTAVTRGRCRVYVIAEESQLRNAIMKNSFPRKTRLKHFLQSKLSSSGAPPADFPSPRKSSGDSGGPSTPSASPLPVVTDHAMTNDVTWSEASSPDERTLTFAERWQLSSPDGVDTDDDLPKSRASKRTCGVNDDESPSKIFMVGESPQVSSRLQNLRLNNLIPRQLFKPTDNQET
Chain of HDHB helicase domain (aa 394-958) (Q8NG08 394-958): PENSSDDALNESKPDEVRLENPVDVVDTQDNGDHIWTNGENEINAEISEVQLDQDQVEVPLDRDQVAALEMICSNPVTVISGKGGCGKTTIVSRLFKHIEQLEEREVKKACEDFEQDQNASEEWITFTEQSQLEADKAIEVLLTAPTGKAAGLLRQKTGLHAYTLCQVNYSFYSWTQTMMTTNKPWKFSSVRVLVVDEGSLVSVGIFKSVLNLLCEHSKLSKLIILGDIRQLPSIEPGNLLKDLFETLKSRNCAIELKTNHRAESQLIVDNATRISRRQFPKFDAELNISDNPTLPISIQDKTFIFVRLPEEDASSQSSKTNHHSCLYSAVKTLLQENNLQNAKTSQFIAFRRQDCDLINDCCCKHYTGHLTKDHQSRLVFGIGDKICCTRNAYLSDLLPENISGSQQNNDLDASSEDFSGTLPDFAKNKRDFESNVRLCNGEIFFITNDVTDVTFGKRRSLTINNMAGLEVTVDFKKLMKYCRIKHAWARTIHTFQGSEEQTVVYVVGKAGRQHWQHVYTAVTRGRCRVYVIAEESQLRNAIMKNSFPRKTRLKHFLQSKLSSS
Chain of HDHB N-terminus (aa 1-393) (Q8NG08 1-393): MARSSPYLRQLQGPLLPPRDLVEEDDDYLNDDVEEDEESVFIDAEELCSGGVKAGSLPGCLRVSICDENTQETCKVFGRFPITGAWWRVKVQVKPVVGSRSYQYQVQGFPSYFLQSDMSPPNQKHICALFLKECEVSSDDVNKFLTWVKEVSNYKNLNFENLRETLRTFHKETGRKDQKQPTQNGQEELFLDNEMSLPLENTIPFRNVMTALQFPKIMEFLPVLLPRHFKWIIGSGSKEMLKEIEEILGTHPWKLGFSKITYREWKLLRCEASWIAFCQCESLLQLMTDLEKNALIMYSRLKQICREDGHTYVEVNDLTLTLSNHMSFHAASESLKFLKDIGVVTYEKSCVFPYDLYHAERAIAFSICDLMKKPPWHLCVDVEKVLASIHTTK

Binder	binding result (human DNA helicase B [1])	binding result [2]	binding result [3]	binding result (human DNA helicase B [4])
His-Cdc45 (natural protein, human, UniProt O75419 1-566, looked up) MFVSDFRKEFYEVVQSQRVLLFVASDVDALCACKILQALFQCDHVQYTLVPVSGWQELETAFLEHKEQFHYFILINCGANVDLLDILQPDEDTIFFVCDTHRPVNVVNVYNDTQIKLLIKQDDDLEVPAYEDIFRDEEEDEEHSGNDSDGSEPSEKRTRLEEEIVEQTMRRRQRREWEARRRDILFDYEQYEYHGTSSAMVMFELAWMLSKDLNDMLWWAIVGLTDQWVQDKITQMKYVTDVGVLQRHVSRHNHRNEDEENTLSVDCTRISFEYDLRLVLYQHWSLHDSLCNTSYTAARFKLWSVHGQKRLQEFLADMGLPLKQVKQKFQAMDISLKENLREMIEESANKFGMKDMRVQTFSIHFGFKHKFLASDVVFATMSLMESPEKDGSGTDHFIQALDSLSRSNLDKLYHGLELAKKQLRATQQTIASCLCTNLVISQGPFLYCSLMEGTPDVMLFSRPASLSLLSKHLLKSFVCSTKNRRCKLLPLVMAAPLSMEHGTVTVVGIPPETDSSDRKNFFGRAFEKAAESTSSRMLHNHFDLSVIELKAEDRSKFLDALISLLS	binds			
GST-tagged Cdc45N (1-303) (domain or fragment, human, UniProt O75419 1-303, looked up) MFVSDFRKEFYEVVQSQRVLLFVASDVDALCACKILQALFQCDHVQYTLVPVSGWQELETAFLEHKEQFHYFILINCGANVDLLDILQPDEDTIFFVCDTHRPVNVVNVYNDTQIKLLIKQDDDLEVPAYEDIFRDEEEDEEHSGNDSDGSEPSEKRTRLEEEIVEQTMRRRQRREWEARRRDILFDYEQYEYHGTSSAMVMFELAWMLSKDLNDMLWWAIVGLTDQWVQDKITQMKYVTDVGVLQRHVSRHNHRNEDEENTLSVDCTRISFEYDLRLVLYQHWSLHDSLCNTSYTAARFKLW		binds	binds	binds
